{
  "source": "patent US11844843",
  "about": "(DYNE THERAPEUTICS, dated 2023)",
  "key": {"[1]": {"target": "T1, recombinant human TfR1 (transferrin receptor protein 1) (human, UniProt P02786 89-760)", "T1 construct": "Recombinant protein in SPR and ELISA; they were assigned to this molecule; also called hTfR1; huTfR1", "assay": "ELISA on hTfR1, unconjugated Fab, % normalized RFUs"}, "[2]": {"target": "T1, recombinant human TfR1 (transferrin …)", "assay": "kinetic analysis (Biacore), Table 7; TfR1 species not stated"}, "[3]": {"target": "T2, recombinant cynomolgus monkey (Macaca fascicularis) TfR1 (cynomolgus monkey (Macaca fascicularis), UniProt Q5RDH6 87-760 (Pongo abelii entry), limits assumed)", "T2 construct": "Recombinant protein; also called cTfR1; cyTfR1", "T2 chain": "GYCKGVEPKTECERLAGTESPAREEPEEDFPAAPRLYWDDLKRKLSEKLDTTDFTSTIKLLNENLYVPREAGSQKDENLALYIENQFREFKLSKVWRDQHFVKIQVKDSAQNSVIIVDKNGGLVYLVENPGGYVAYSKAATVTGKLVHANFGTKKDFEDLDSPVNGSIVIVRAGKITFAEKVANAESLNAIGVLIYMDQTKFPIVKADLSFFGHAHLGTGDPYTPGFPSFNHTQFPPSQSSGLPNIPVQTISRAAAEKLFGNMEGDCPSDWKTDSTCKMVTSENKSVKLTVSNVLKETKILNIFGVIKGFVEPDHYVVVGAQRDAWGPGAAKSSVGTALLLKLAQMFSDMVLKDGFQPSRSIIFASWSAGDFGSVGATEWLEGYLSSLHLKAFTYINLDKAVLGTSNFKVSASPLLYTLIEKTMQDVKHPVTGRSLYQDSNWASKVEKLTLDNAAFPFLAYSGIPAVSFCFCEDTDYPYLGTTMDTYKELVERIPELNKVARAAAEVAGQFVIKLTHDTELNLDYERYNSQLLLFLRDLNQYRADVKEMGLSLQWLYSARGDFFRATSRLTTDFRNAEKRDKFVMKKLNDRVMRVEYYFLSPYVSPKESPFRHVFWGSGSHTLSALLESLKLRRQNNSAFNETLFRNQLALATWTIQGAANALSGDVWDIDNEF", "assay": "Table 14, unconjugated Fab, d0; method not named (values equal ELISA row of Table 13)"}, "[4]": {"target": "T1, recombinant human TfR1 (transferrin …)", "assay": "Table 14, unconjugated Fab, d0; method not named (values equal ELISA row of Table 13)"}, "[5]": {"target": "T3, recombinant mouse TfR1 (mouse, UniProt Q62351 89-763)", "T3 construct": "Recombinant protein coated on ELISA plates", "T3 sequence (Q62351 89-763 limits assumed)": "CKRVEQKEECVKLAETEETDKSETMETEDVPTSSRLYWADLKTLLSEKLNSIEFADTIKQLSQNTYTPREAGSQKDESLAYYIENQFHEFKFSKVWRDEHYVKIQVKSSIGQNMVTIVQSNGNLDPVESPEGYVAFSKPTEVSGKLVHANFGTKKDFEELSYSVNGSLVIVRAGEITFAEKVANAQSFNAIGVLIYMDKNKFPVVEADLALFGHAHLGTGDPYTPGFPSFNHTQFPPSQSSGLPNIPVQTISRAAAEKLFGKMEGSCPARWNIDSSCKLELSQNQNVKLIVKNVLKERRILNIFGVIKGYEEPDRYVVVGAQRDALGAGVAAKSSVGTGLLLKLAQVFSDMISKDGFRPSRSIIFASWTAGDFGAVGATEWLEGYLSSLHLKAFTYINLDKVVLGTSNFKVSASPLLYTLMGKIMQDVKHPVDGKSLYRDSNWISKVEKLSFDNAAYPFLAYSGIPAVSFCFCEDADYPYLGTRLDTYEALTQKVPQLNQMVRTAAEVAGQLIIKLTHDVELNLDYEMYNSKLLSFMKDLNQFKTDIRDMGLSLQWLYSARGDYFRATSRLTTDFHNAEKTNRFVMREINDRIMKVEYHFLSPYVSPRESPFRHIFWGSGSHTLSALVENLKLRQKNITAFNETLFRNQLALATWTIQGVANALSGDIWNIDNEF", "assay": "ELISA on plate-coated recombinant mouse TfR1, fluorescent anti-(H+L) IgG secondary", "protocol": "(§1) Serial dilutions of the Fab were added to plates precoated with recombinant human, cynomolgus monkey, mouse, or rat TfR1. After a short incubation, binding of the Fab was quantified by addition of a fluorescently tagged anti-(H+L) IgG secondary antibody and measurement of fluorescence intensity at 495 nm excitation and 520 nm emission."}, "[6]": {"target": "T1, recombinant human TfR1 (transferrin …)", "assay": "Biacore, d0; TfR1 species not stated"}, "[7]": {"target": "T2, recombinant cynomolgus monkey (Macaca …)", "assay": "ELISA on cTfR1, unconjugated Fab, % normalized RFUs"}, "[8]": {"target": "T2, recombinant cynomolgus monkey (Macaca …)", "assay": "surface plasmon resonance"}, "[9]": {"target": "T1, recombinant human TfR1 (transferrin …)", "assay": "surface plasmon resonance"}, "[10]": {"target": "T4, recombinant human TfR2 (transferrin receptor 2) (human, UniProt Q9UP52 105-801, limits assumed)", "T4 construct": "Recombinant protein in ELISA and SPR; also called hTfR2", "T4 sequence (looked up)": "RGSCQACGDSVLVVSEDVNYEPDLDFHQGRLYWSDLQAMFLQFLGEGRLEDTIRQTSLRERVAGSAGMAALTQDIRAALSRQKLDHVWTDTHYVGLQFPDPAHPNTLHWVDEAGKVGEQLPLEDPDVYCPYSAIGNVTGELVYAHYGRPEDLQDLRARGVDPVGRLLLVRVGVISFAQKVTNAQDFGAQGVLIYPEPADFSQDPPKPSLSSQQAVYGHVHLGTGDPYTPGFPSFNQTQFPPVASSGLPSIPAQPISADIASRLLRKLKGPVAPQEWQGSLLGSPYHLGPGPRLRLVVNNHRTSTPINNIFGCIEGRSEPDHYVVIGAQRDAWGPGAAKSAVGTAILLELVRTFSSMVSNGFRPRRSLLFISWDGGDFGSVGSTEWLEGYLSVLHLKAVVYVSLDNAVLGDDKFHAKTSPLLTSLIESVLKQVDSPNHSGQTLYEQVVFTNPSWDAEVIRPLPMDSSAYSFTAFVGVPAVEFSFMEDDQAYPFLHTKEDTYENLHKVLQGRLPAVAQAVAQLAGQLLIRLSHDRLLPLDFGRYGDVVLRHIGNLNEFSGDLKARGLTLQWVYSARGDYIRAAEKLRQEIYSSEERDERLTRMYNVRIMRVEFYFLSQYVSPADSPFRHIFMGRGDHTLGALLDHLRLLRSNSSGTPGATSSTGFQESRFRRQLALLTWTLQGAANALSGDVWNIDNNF", "assay": "ELISA on plate-coated recombinant human TfR2, anti-(H+L) IgG-A488 secondary", "protocol": "Recombinant human TfR2 protein was plated overnight at […] and was blocked for 1 hour with 1% bovine serum albumin (BSA) in PBS. Serial dilutions of the Fab or a positive control anti-TfR2 antibody were added in 0.5% BSA/TBST for 1 hour. After washing, anti-(H+L) IgG-A488 (Invitrogen #MA5-25932) fluorescent secondary antibody was added at a 1:500 dilution in 0.5% BSA/TBST and the plate was incubated for 1 hour. Relative fluorescence was measured using a Biotek Synergy plate reader at 495 nm excitation and 520 nm emission."}, "[11]": {"target": "T5, recombinant rat TfR1 (rat, UniProt Q99376 89-761, limits assumed)", "T5 construct": "Recombinant protein coated on ELISA plates", "T5 sequence (Q99376 89-761 limits assumed)": "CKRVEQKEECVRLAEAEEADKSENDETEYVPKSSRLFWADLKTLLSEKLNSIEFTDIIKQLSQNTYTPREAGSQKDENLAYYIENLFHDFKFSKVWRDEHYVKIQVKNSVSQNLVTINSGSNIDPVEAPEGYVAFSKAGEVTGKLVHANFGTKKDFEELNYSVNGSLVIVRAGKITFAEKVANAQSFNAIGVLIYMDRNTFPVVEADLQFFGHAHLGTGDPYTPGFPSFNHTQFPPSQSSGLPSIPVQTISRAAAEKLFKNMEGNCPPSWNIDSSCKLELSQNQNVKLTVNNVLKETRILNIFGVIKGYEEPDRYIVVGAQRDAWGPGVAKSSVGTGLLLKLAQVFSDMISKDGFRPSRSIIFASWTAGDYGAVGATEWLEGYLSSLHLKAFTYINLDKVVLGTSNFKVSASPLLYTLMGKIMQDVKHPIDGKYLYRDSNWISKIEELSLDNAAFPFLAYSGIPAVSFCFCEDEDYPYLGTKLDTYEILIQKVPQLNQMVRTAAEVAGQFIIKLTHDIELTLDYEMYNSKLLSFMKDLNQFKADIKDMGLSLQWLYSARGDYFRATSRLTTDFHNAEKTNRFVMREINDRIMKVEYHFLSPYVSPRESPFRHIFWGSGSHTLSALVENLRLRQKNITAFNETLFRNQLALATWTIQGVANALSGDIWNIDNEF", "assay": "ELISA on plate-coated recombinant rat TfR1, fluorescent anti-(H+L) IgG secondary", "protocol": "as §1"}},
  "data": [
    {"binder": "humanized anti-TfR Fab 3M12 VH4/Vκ3 (Fab, V domains shown, also called 3M12 (VH4/Vk3); anti-TfR Fab 3M12 VH4/Vk3) VH: QVQLQESGPGLVKPSQTLSLTCTVTGYSITSGYYWNWIRQPPGKGLEWIGYITFDGANNYNPSLKNRVSISRDTSKNQFSLKLSSVTAEDTATYYCTRSSYDYDVLDYWGQGTTVTVSS VL: DIQMTQSPSSLSASVGDRVTITCRASQDISNFLNWYQQKPGQPVKLLIYYTSRLHSGVPSRFSGSGSGTDFTLTISSLQPEDFATYYCQQGHTLPYTFGQGTKLEIKR", "values": [
      {"measurement": "EC50", "setting": "[1]", "result": 2.1, "unit": "nM"},
      {"measurement": "Kd", "setting": "[2]", "result": 0.341, "unit": "nM"},
      {"measurement": "koff", "setting": "[2]", "result": "8.61e-05", "unit": "s⁻¹"},
      {"measurement": "kon", "setting": "[2]", "result": 252000, "unit": "M⁻¹ s⁻¹"},
      {"measurement": "Binding affinity", "setting": "[3]", "result": 2.2, "unit": "nM"},
      {"measurement": "Binding affinity", "setting": "[4]", "result": 0.5, "unit": "nM"},
      {"measurement": "binding result", "setting": "[5]", "result": "no binding (tested: 500 nM)"},
      {"measurement": "Kd", "setting": "[6]", "result": 0.341, "unit": "nM"},
      {"measurement": "EC50", "setting": "[7]", "result": 9.9, "unit": "nM"},
      {"measurement": "Kd", "setting": "[8]", "result": 5.18, "unit": "nM"},
      {"measurement": "koff", "setting": "[8]", "result": 0.000476, "unit": "s⁻¹"},
      {"measurement": "kon", "setting": "[8]", "result": 91900, "unit": "M⁻¹ s⁻¹"},
      {"measurement": "Kd", "setting": "[9]", "result": 0.768, "unit": "nM"},
      {"measurement": "koff", "setting": "[9]", "result": 0.000127, "unit": "s⁻¹"},
      {"measurement": "kon", "setting": "[9]", "result": 166000, "unit": "M⁻¹ s⁻¹"},
      {"measurement": "binding result", "setting": "[10]", "result": "no binding (tested: 500 nM)"},
      {"measurement": "binding result", "setting": "[11]", "result": "no binding (tested: 500 nM)"}
    ]}
  ]
}
